The subject of the series is facial nerve of Lewis rats. As to the kind of experiment: Histological processing of muscle, mystacial pad and buccal branch nerve. As to conditions: mystacial pad, qualitative, 12-week endpoint. Format: in vivo. The protocol:
This study was performed on the facial nerve of Lewis rats (Charles River, Wilmington, MA). Institutional approval was obtained before performing the study, and all animal procedures and housing were performed under the guidelines of the University of Pittsburgh Institutional Animal Care and Use Committee and in compliance with animal experimentation ethics policies.
Surgical procedures. Rats were placed under general anesthesia and maintained with Isoflurane. Preauricular/buccal incision lines were marked (FIG. 8A) and the nerve branches were exposed (FIG. 8B). A 5 mm segment of the marginal mandibular branch was removed to prevent cross-innervation contribution to the whisker movement^41. The buccal branch was then transected, and the resultant 2 mm defect was primarily repaired with 9-0 nylon sutures. […]
Histological processing. […] For the muscles, the mean muscle fiber pixel area was calculated from brightfield staining. […] Cross-sections of the main buccal branch distal to the injury site were analyzed for the number of axons. For S100, sections of the nerve distal and proximal to the transection and repair site were quantified separately and the ratio was used for comparison. All samples were blinded before quantification.

B1: GDNF: Recombinant human GDNF protein (R&D Systems), active agent of the microspheres (protein, UniProt P39905 78-211, looked up)
Glial cell line-derived …: SPDKQMAVLPRRERNRQAAAANPENSRGKGRRGQRGKNRGCVLTAIHLNVTDLGLGYETKEELIFRYCSGSCDAAETTYDKILKNLSRNRRLVSDKVGQACCRPIAFDDDLSFLDDNLVYHILRKHSAKRCGCI
modifications: in microspheres
Turning to B1, the “local adverse effects on whisker pad and intrinsic vibrissae muscles (morphology)” value was “no local adverse effects”.

The values are drawn from US20250144275A1, “SYSTEM AND METHOD FOR COATING MEDICAL CONDUIT WITH PARTICLES AND USE THEREOF” (UNIVERSITY OF PITTSBURGH - OF THE COMMONWEALTH SYSTEM OF …, priority 2022, published 2025).
